Source: US20240270846A1 (published 2024)
Numbering of substitutions follows the chain as printed. In names and notes the source's numbering stands.

B1: CE115HA000/GLS3000 V94G one-arm antibody (antibody, human IgG1, kappa, L234A L235A, N297A, name in Kabat numbering)
heavy: QVQLVESGGGVVQPGRSLRLSCAASGFTFSNAWMHWVRQAPGKGLEWVAQIKAKSNNYATYYAESVKGRFTISRDDSKNSLYLQMNSLKTEDTAVYYCRYVHYGAYYGVDAWGQGTTVTVSSASTKGPSVFPLAPSSKSTSGGTAALGCLVKDYFPEPVTVSWNSGALTSGVHTFPAVLQSSGLYSLSSVVTVPSSSLGTQTYICNVNHKPSNTKVDKKVEPKSCDKTHTCPPCPAPEAAGGPSVFLFPPKPKDTLMISRTPEVTCVVVDVSHEDPEVKFNWYVDGVEVHNAKTKPREEQYASTYRVVSVLTVLHQDWLNGKEYKCKVSNKALPAPIEKTISKAKGQPREPQVYTLPPSRCELTKNQVSLSCAVKGFYPSDIAVEWESNGQPENNYKTTPPVLDSDGSFFLVSKLTVDKSRWQQGNVFSCSVMHEALHNHYTQKSLSLSPDYKDDDDK
chain: EPKSSDKTHTCPPCPAPELLGGPSVFLFPPKPKDTLMISRTPEVTCVVVDVSHEDPEVKFNWYVDGVEVHNAKTKPREEQYNSTYRVVSVLTVLHQDWLNGKEYKCKVSNKALPAPIEKTISKAKGQPREPQVCTLPPSRDELTKNQVSLWCLVKGFYPSDIAVEWESNGQPENNYKTTPPVLDSDGSFFLYSKLTVDKSRWQQGNVFSCSVMHEALHNRYTQKSLSLSP
light: DIVMTQSPLSLPVTPGEPASISCRSSQSLVHSNRNTYLHWYQQKPGQAPRLLIYKVSNRFSGVPDRFSGSGSGTDFTLKISRVEAEDVGVYYCGQGTQGPYTFGQGTKLEIKRTVAAPSVFIFPPSDEQLKSGTASVVCLLNNFYPREAKVQWKVDNALQSGNSQESVTEQDSKDSTYSLSSTLTLSKADYEKHKVYACEVTHQGLSSPVTKSFNRGEC
notes: one-arm IgG1
B2: CE115HA000/GLS3000 Y32D one-arm antibody (antibody, human IgG1, kappa, L234A L235A, N297A, name in Kabat numbering)
heavy: B1 heavy
chain: B1 chain
light: B1 light with Y37D, G99V
notes: one-arm IgG1
B3: CE115HA000/GLS3000 Y96E one-arm antibody (antibody, human IgG1, kappa, L234A L235A, N297A, name in Kabat numbering)
heavy: B1 heavy
chain: B1 chain
light: B1 light with G99V, Y101E
notes: one-arm IgG1
B4: CE115HA000/GLS3000 Y32F one-arm antibody (antibody, human IgG1, kappa, L234A L235A, N297A, name in Kabat numbering)
heavy: B1 heavy
chain: B1 chain
light: B1 light with Y37F, G99V
notes: one-arm IgG1
B5: CE115HA000/GLS3000 V94K one-arm antibody (antibody, human IgG1, kappa, L234A L235A, N297A, name in Kabat numbering)
heavy: B1 heavy
chain: B1 chain
light: B1 light with G99K
notes: one-arm IgG1
B6: CE115HA000/GLS3000 Y32P one-arm antibody (antibody, human IgG1, kappa, L234A L235A, N297A, name in Kabat numbering)
heavy: B1 heavy
chain: B1 chain
light: B1 light with Y37P, G99V
notes: one-arm IgG1
B7: CE115HA000/GLS3000 V94L one-arm antibody (antibody, human IgG1, kappa, L234A L235A, N297A, name in Kabat numbering)
heavy: B1 heavy
chain: B1 chain
light: B1 light with G99L
notes: one-arm IgG1
B8: CE115HA000/GLS3000 V94H one-arm antibody (antibody, human IgG1, kappa, L234A L235A, N297A, name in Kabat numbering)
heavy: B1 heavy
chain: B1 chain
light: B1 light with G99H
notes: one-arm IgG1
B9: CE115HA000/GLS3000 V94N one-arm antibody (antibody, human IgG1, kappa, L234A L235A, N297A, name in Kabat numbering)
heavy: B1 heavy
chain: B1 chain
light: B1 light with G99N
notes: one-arm IgG1
B10: CE115HA000/GLS3000 Y96L one-arm antibody (antibody, human IgG1, kappa, L234A L235A, N297A, name in Kabat numbering)
heavy: B1 heavy
chain: B1 chain
light: B1 light with G99V, Y101L
notes: one-arm IgG1
B11: CE115HA000/GLS3000 Y96D one-arm antibody (antibody, human IgG1, kappa, L234A L235A, N297A, name in Kabat numbering)
heavy: B1 heavy
chain: B1 chain
light: B1 light with G99V, Y101D
notes: one-arm IgG1
B12: CE115HA000/GLS3000 Y96F one-arm antibody (antibody, human IgG1, kappa, L234A L235A, N297A, name in Kabat numbering)
heavy: B1 heavy
chain: B1 chain
light: B1 light with G99V, Y101F
notes: one-arm IgG1
B13: CE115HA000/GLS3000 V94F one-arm antibody (antibody, human IgG1, kappa, L234A L235A, N297A, name in Kabat numbering)
heavy: B1 heavy
chain: B1 chain
light: B1 light with G99F
notes: one-arm IgG1
B14: CE115HA000/GLS3000 Y96H one-arm antibody (antibody, human IgG1, kappa, L234A L235A, N297A, name in Kabat numbering)
heavy: B1 heavy
chain: B1 chain
light: B1 light with G99V, Y101H
notes: one-arm IgG1
B15: CE115HA000/GLS3000 V94M one-arm antibody (antibody, human IgG1, kappa, L234A L235A, N297A, name in Kabat numbering)
heavy: B1 heavy
chain: B1 chain
light: B1 light with G99M
notes: one-arm IgG1
B16: CE115HA000/GLS3000 V94I one-arm antibody (antibody, human IgG1, kappa, L234A L235A, N297A, name in Kabat numbering)
heavy: B1 heavy
chain: B1 chain
light: B1 light with G99I
notes: one-arm IgG1
B17: GLS3000 H27dA one-arm antibody (H chain CE115HA000) (antibody, human IgG1, kappa, L234A L235A, N297A, name in Kabat numbering)
heavy: B1 heavy
chain: B1 chain
light: B1 light with H31A, G99V
notes: one-arm antibody
B18: GLS3000 H27dD one-arm antibody (H chain CE115HA000) (antibody, human IgG1, kappa, L234A L235A, N297A, name in Kabat numbering)
heavy: B1 heavy
chain: B1 chain
light: B1 light with H31D, G99V
notes: one-arm antibody
B19: GLS3000 H27dP one-arm antibody (H chain CE115HA000) (antibody, human IgG1, kappa, L234A L235A, N297A, name in Kabat numbering)
heavy: B1 heavy
chain: B1 chain
light: B1 light with H31P, G99V
notes: one-arm antibody
B20: GLS3000 H27dM one-arm antibody (H chain CE115HA000) (antibody, human IgG1, kappa, L234A L235A, N297A, name in Kabat numbering)
heavy: B1 heavy
chain: B1 chain
light: B1 light with H31M, G99V
notes: one-arm antibody
B21: GLS3000 H27dG one-arm antibody (H chain CE115HA000) (antibody, human IgG1, kappa, L234A L235A, N297A, name in Kabat numbering)
heavy: B1 heavy
chain: B1 chain
light: B1 light with H31G, G99V
notes: one-arm antibody
B22: GLS3000 H27dQ one-arm antibody (H chain CE115HA000) (antibody, human IgG1, kappa, L234A L235A, N297A, name in Kabat numbering)
heavy: B1 heavy
chain: B1 chain
light: B1 light with H31Q, G99V
notes: one-arm antibody
B23: GLS3000 F55A one-arm antibody (H chain CE115HA000) (antibody, human IgG1, kappa, L234A L235A, N297A, name in Kabat numbering)
heavy: B1 heavy
chain: B1 chain
light: B1 light with F60A, G99V
notes: one-arm antibody
B24: GLS3000 H27dT one-arm antibody (H chain CE115HA000) (antibody, human IgG1, kappa, L234A L235A, N297A, name in Kabat numbering)
heavy: B1 heavy
chain: B1 chain
light: B1 light with H31T, G99V
notes: one-arm antibody
B25: GLS3000 H27dS one-arm antibody (H chain CE115HA000) (antibody, human IgG1, kappa, L234A L235A, N297A, name in Kabat numbering)
heavy: B1 heavy
chain: B1 chain
light: B1 light with H31S, G99V
notes: one-arm antibody
B26: GLS3000 H27dR one-arm antibody (H chain CE115HA000) (antibody, human IgG1, kappa, L234A L235A, N297A, name in Kabat numbering)
heavy: B1 heavy
chain: B1 chain
light: B1 light with H31R, G99V
notes: one-arm antibody
B27: GLS3000 F55D one-arm antibody (H chain CE115HA000) (antibody, human IgG1, kappa, L234A L235A, N297A, name in Kabat numbering)
heavy: B1 heavy
chain: B1 chain
light: B1 light with F60D, G99V
notes: one-arm antibody
B28: GLS3000 H27dK one-arm antibody (H chain CE115HA000) (antibody, human IgG1, kappa, L234A L235A, N297A, name in Kabat numbering)
heavy: B1 heavy
chain: B1 chain
light: B1 light with H31K, G99V
notes: one-arm antibody
B29: GLS3000 H27dF one-arm antibody (H chain CE115HA000) (antibody, human IgG1, kappa, L234A L235A, N297A, name in Kabat numbering)
heavy: B1 heavy
chain: B1 chain
light: B1 light with H31F, G99V
notes: one-arm antibody
B30: GLS3000 H27dL one-arm antibody (H chain CE115HA000) (antibody, human IgG1, kappa, L234A L235A, N297A, name in Kabat numbering)
heavy: B1 heavy
chain: B1 chain
light: B1 light with H31L, G99V
notes: one-arm antibody
B31: GLS3000 H27dI one-arm antibody (H chain CE115HA000) (antibody, human IgG1, kappa, L234A L235A, N297A, name in Kabat numbering)
heavy: B1 heavy
chain: B1 chain
light: B1 light with H31I, G99V
notes: one-arm antibody
B32: GLS3000 H27dN one-arm antibody (H chain CE115HA000) (antibody, human IgG1, kappa, L234A L235A, N297A, name in Kabat numbering)
heavy: B1 heavy
chain: B1 chain
light: B1 light with H31N, G99V
notes: one-arm antibody
B33: GLS3000 H27dE one-arm antibody (H chain CE115HA000) (antibody, human IgG1, kappa, L234A L235A, N297A, name in Kabat numbering)
heavy: B1 heavy
chain: B1 chain
light: B1 light with H31E, G99V
notes: one-arm antibody

These binders were tested against T1, CD3 epsilon homodimer protein (UniProt P07766 23-126) (assay: SPR (Biacore T200), CD3e homodimer on CM4 chip, antibody as analyte; KD ratio vs unaltered GLS3000;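 note: CD3 epsilon homodimer amine-coupled to the sensor surface, antibodies injected as analyte at 25 °C with HBS-EP+ running buffer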).
T1 construct: also called CD3 (CD3 epsilon)
T1 sequence (P07766 23-126): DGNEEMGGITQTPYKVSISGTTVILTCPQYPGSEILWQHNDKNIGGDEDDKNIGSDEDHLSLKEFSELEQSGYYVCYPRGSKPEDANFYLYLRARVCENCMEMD

Row | Binder | KD ratio to GLS3000
1 | B1 | 2.59 ratio
2 | B2 | 25.9 ratio
3 | B3 | 46.8 ratio
4 | B4 | 4.51 ratio
5 | B5 | 0.91 ratio
6 | B6 | 62 ratio
7 | B7 | 3.06 ratio
8 | B8 | 1.16 ratio
9 | B9 | 0.96 ratio
10 | B10 | 1.84 ratio
11 | B11 | 40.9 ratio
12 | B12 | 0.86 ratio
13 | B13 | 1.75 ratio
14 | B14 | 80.3 ratio
15 | B15 | 2.74 ratio
16 | B16 | 1.46 ratio

The binders below were run against T2, CD3 epsilon homodimer protein (UniProt P07766 23-126) (assay: SPR, CD3e homodimer on chip;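 note: surface plasmon resonance at 25 degrees C, antibodies flowed as analyte over CD3 epsilon homodimer amine-coupled to a CM4 chip, running buffer HBS-EP+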).
T2 construct: also called CD3 (CD3 epsilon)
T2 sequence (P07766 23-126): as above

Row | Binder | ratio of amounts bound (altered form / unaltered GLS3000 antibody)
17 | B17 | 0.48
18 | B18 | 0.22
19 | B19 | 0.24
20 | B20 | 0.3
21 | B21 | 0.3
22 | B22 | 0.25
23 | B23 | 1.13
24 | B24 | 0.29
25 | B25 | 0.32
26 | B26 | 0.31
27 | B27 | 0.65
28 | B28 | 0.29
29 | B29 | 0.63
30 | B30 | 0.3
31 | B31 | 0.26
32 | B32 | 0.3
33 | B33 | 0.23
